Measurements: patent US20230417748A1 (GREEN CROSS, published 2023)

Molecular target: SARS-CoV-2 spike protein (SARS-CoV-2, UniProt P0DTC2 14-1213)

B1: M4-4 (antibody, V domains shown)
VH: EVQLVESGGGLVKPGGSLRLSCAASGFTFSSRGMSWVRQAPGKGLEWVSTISFGDIYTYYPDSVKGRFTISRDNAKNSLYLQMNSLRAEDTAVYYCARPNDGYFDYWGQGTLVTVSS
VL: DIVMTQSPATLSVSPGERATLSCKASQDVSTDVAWYQQKPGQAPRLLIYWASTRHTGVPDRFSGSGSGTDFTLTISSLQSEDFAVYYCQQHYSTPWTFGGGTKVEIKR
dissociation constant against REGN10933 and REGN10987: ~10 fold
